In ChEMBL document CHEMBL2029331, “Red fluorescent scaffold for highly sensitive protease activity probes” (Bioorg Med Chem Lett, 2012):

Tests used:
[1] = substrate: Cc1ccccc1C1=C2C=CC(=N)C=C2[Si](C)(C)c2cc(NC(=O)[C@H](CC(=O)O)NC(=O)[C@@H](NC(=O)[C@H](CCC(=O)O)NC(=O)[C@H](CC(=O)O)NC(=O)OCc3ccccc3)C(C)C)ccc21; experiment: Ratio of Kcat to Km for caspase3 by FRET assay
[2] = substrate: Cc1ccccc1C1=C2C=CC(=N)C=C2[Si](C)(C)c2cc(NC(=O)[C@H](CC(=O)O)NC(=O)[C@@H](NC(=O)[C@H](CCC(=O)O)NC(=O)[C@H](CC(=O)O)NC(=O)OCc3ccccc3)C(C)C)ccc21; experiment: Activity of caspase3 after 10 hrs by FRET assay

B1: Caspase-3 (Homo sapiens), P42574 (protein)
chain: MENTENSVDSKSIKNLEPKIIHGSESMDSGISLDNSYKMDYPEMGLCIIINNKNFHKSTGMTSRSGTDVDAANLRETFRNLKYEVRNKNDLTREEIVELMRDVSKEDHSKRSSFVCVLLSHGEEGIIFGTNGPVDLKKITNFFRGDRCRSLTGKPKLFIIQACRGTELDCGIETDSGVDDDMACHKIPVEADFLYAYSTAPGYYSWRNSKDGSWFIQSLCAMLKQYADKLEFMHILTRVNRKVATEFESFSFDATFHAKKQIPCIVSMLTKELYFYH
kcat/Km [1]: 3.1 ×10⁶ /M/s
Km [2]: 1.2 µM
Vmax [2]: 6.8 ×10⁻⁸ M/s
